The record followed here is patent US20250304927A1, “PRO-PEPTIDE VARIANTS FOR MODULATING ACTIVITY OF TRANSGLUTAMINASES” (CURIE CO. INC., priority 2022, published 2025).

Experiment [1] addresses T1, thermostable variant of Streptomyces mobaraensis transglutaminase (Streptomyces mobaraensis, UniProt P81453 79-407).
T1 sequence: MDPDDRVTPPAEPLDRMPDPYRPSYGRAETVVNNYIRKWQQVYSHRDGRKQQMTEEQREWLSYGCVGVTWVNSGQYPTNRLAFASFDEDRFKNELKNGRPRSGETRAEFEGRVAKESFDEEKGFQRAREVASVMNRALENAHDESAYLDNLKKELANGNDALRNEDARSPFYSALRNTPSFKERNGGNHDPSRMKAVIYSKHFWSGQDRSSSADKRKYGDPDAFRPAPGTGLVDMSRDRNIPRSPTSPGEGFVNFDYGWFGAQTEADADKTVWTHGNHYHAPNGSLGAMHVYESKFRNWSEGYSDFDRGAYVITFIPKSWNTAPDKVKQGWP
Kind of experiment: cell-based or functional assay.

For experiment [2], the target named is T1, thermostable variant of Streptomyces …. Description: cell-based or functional assay. This is another data set of the same source.

Turning to MDNGAGEETKSYAETYRLTADDVANINALNESAPAAS [pro-peptide truncation variant ΔS38-P46], the “Improvement in pH responsiveness of inhibitory peptide relative to WT” value in experiment [1] was above 1.2 fold.
In the case of MINGAGEETKSYAETYRLTADDVANINALNESAPAASSAGPSFRAP [pro-peptide variant D2I], the “Improvement in pH responsiveness of inhibitory peptide relative to WT” value in experiment [1] is above 1.2 fold. Moreover, in experiment [2], the “Improvement in binding affinity of inhibitory peptide relative to WT” value is above 1.2 fold.
On to MDNGAGDETKSYAETYRLTADDVANINALNESAPAASSAGPSFRAP [pro-peptide variant E7D], for which, in experiment [2], the “Improvement in binding affinity of inhibitory peptide relative to WT” value was above 1.2 fold.
For MDNGAGEETKSYAYTYRLTADDVANINALNESAPAASSAGPSFRAP [pro-peptide variant E14Y], the “Improvement in pH responsiveness of inhibitory peptide relative to WT” value in experiment [1] is above 5 fold.
MDNGAGNETKSYAETYRLTADDVANINALNESAPAASSAGPSFRAP [pro-peptide variant E7N]: the “Improvement in pH responsiveness of inhibitory peptide relative to WT” value in experiment [1] is above 5 fold. Also, in experiment [2], the “Improvement in binding affinity of inhibitory peptide relative to WT” value is above 1.2 fold.
MPNGAGEETKSYAETYRLTADDVANINALNESAPAASSAGPSFRAP [pro-peptide variant D2P]: the “Improvement in pH responsiveness of inhibitory peptide relative to WT” value in experiment [1] was above 5 fold. For the same molecule, in experiment [2], the “Improvement in binding affinity of inhibitory peptide relative to WT” value is above 1.2 fold.
Regarding MDNGAGEETKSYAETYRFTADDVANINALNESAPAASSAGPSFRAP [pro-peptide variant L18F], the “Improvement in binding affinity of inhibitory peptide relative to WT” value in experiment [2] is above 1.2 fold.
As to MDNGAGEETKSYAETYRLTADDVANINALNESAPAASSAGPSFRAF [pro-peptide variant P46F], in experiment [1], the “Improvement in pH responsiveness of inhibitory peptide relative to WT” value is above 1.2 fold.
As for MDNGAGEETKTYAETYRLTADDVANINALNESAPAASSAGPSFRAP [pro-peptide variant S11T], the “Improvement in pH responsiveness of inhibitory peptide relative to WT” value in experiment [1] was above 1.2 fold.
As to MDNGAGEEPKSYAETYRLTADDVANINALNESAPAASSAGPSFRAP [pro-peptide variant T9P], the “Improvement in binding affinity of inhibitory peptide relative to WT” value in experiment [2] was above 1.2 fold.
MDNGAGRETKSYAETYRLTADDVANINALNESAPAASSAGPSFRAP [pro-peptide variant E7R]: the “Improvement in binding affinity of inhibitory peptide relative to WT” value in experiment [2] is above 1.2 fold.
As for MDNGAGEETKSYAETYRGTADDVANINALNESAPAASSAGPSFRAP [pro-peptide variant L18G], the “Improvement in pH responsiveness of inhibitory peptide relative to WT” value in experiment [1] was above 1.2 fold.
Turning to MDNGAGEITKSYAETYRLTADDVANINALNESAPAASSAGPSFRAP [pro-peptide variant E8I], the “Improvement in binding affinity of inhibitory peptide relative to WT” value in experiment [2] was above 1.2 fold.
On the same count and under the same terms, for MDNGAGEECKSYAETYRLTADDVANINALNESAPAASSAGPSFRAP [pro-peptide variant T9C] the value was above 1.2 fold; for MDNGAGEETKSYAETYRLTADDVANVNALNESAPAASSAGPSFRAP [pro-peptide variant I26V], above 1.2 fold.
As for MDNGAGEETKSYAETYRCTADDVANINALNESAPAASSAGPSFRAP [pro-peptide variant L18C], the “Improvement in pH responsiveness of inhibitory peptide relative to WT” value in experiment [1] was above 1.2 fold.
As to MDNGAGEETKSYAEQYRLTADDVANINALNESAPAASSAGPSFRAP [pro-peptide variant T15Q], the “Improvement in binding affinity of inhibitory peptide relative to WT” value in experiment [2] was above 1.2 fold.
As for MDNGAGEETKSYAETYRLTADSVANINALNESAPAASSAGPSFRAP [pro-peptide variant D22S], the “Improvement in pH responsiveness of inhibitory peptide relative to WT” value in experiment [1] was above 1.2 fold.
The same measure, in the same setting: for MDNGAGEESKSYAETYRLTADDVANINALNESAPAASSAGPSFRAP [pro-peptide variant T9S] the value was above 1.2 fold.
As to MDNGAGHETKSYAETYRLTADDVANINALNESAPAASSAGPSFRAP [pro-peptide variant E7H], the “Improvement in binding affinity of inhibitory peptide relative to WT” value in experiment [2] is above 1.2 fold.
For MDNGAGEEIKSYAETYRLTADDVANINALNESAPAASSAGPSFRAP [pro-peptide variant T9I], the “Improvement in binding affinity of inhibitory peptide relative to WT” value in experiment [2] was above 1.2 fold.
Take MDNGAGEETKSRAETYRLTADDVANINALNESAPAASSAGPSFRAP [pro-peptide variant Y12R]: the “Improvement in pH responsiveness of inhibitory peptide relative to WT” value in experiment [1] was above 1.2 fold.
On the same count and under the same terms, for MDNGAGEETKSYAETYRLTATDVANINALNESAPAASSAGPSFRAP [pro-peptide variant D21T] the value was above 1.2 fold; for MDNGAGEETKSYAETYRLTADDVANINALNESAPAASSAGPSFRAG [pro-peptide variant P46G], above 5 fold.
As to MDNGAGEVTKSYAETYRLTADDVANINALNESAPAASSAGPSFRAP [pro-peptide variant E8V], the “Improvement in binding affinity of inhibitory peptide relative to WT” value in experiment [2] was above 1.2 fold.
The same measure, in the same setting: next, MDNGAGEEEKSYAETYRLTADDVANINALNESAPAASSAGPSFRAP [pro-peptide variant T9E]: above 1.2 fold; MDNGAGEETKSYAETYRLTADHVANINALNESAPAASSAGPSFRAP [pro-peptide variant D22H]: above 1.2 fold.
The same measure, in the same setting: for MFNGAGEETKSYAETYRLTADDVANINALNESAPAASSAGPSFRAP [pro-peptide variant D2F] the value was above 1.2 fold; for MDNGAGEETKSYAETYRLTAKDVANINALNESAPAASSAGPSFRAP [pro-peptide variant D21K], above 1.2 fold.
Consider MDNGAGEETKAYAETYRLTADDVANINALNESAPAASSAGPSFRAP [pro-peptide variant S11A], for which, in experiment [1], the “Improvement in pH responsiveness of inhibitory peptide relative to WT” value is above 1.2 fold.
With MDNGAGEETKSYAETYRLTADDVANINALNESAPAASSAGPSFRAM [pro-peptide variant P46M], in experiment [1], the “Improvement in pH responsiveness of inhibitory peptide relative to WT” value was above 1.2 fold.
As for MQNGAGEETKSYAETYRLTADDVANINALNESAPAASSAGPSFRAP [pro-peptide variant D2Q], the “Improvement in pH responsiveness of inhibitory peptide relative to WT” value in experiment [1] is above 1.2 fold. Moreover, the “Improvement in binding affinity of inhibitory peptide relative to WT” value in experiment [2] is above 1.2 fold.
Take MDNGAGEETKSYAETYRRTADDVANINALNESAPAASSAGPSFRAP [pro-peptide variant L18R]: in experiment [1], the “Improvement in pH responsiveness of inhibitory peptide relative to WT” value is above 1.2 fold.
Take MDNGAGEETKSYAETYRLTADNVANINALNESAPAASSAGPSFRAP [pro-peptide variant D22N]: the “Improvement in binding affinity of inhibitory peptide relative to WT” value in experiment [2] is above 1.2 fold.
On to MDNGAGEETKSYAKTYRLTADDVANINALNESAPAASSAGPSFRAP [pro-peptide variant E14K], for which the “Improvement in pH responsiveness of inhibitory peptide relative to WT” value in experiment [1] is above 5 fold.
Still for that read-out and setting: next, MDNGAGEETKSYAETYRVTADDVANINALNESAPAASSAGPSFRAP [pro-peptide variant L18V]: above 1.2 fold.
In the case of MDNGAGEETKSYAETYRLTADDVMNINALNESAPAASSAGPSFRAP [pro-peptide variant A24M], the “Improvement in binding affinity of inhibitory peptide relative to WT” value in experiment [2] was above 1.2 fold.
Regarding MDNGAGEETKSYAETYRLTADDVCNINALNESAPAASSAGPSFRAP [pro-peptide variant A24C], the “Improvement in pH responsiveness of inhibitory peptide relative to WT” value in experiment [1] is above 1.2 fold.
On to MDNGAGEEDKSYAETYRLTADDVANINALNESAPAASSAGPSFRAP [pro-peptide variant T9D], for which the “Improvement in binding affinity of inhibitory peptide relative to WT” value in experiment [2] was above 1.2 fold.
For MDNGAGEETKSYAETYRLTADDVANINALNESAPAASRAGPSFRAP [pro-peptide variant S38R], the “Improvement in pH responsiveness of inhibitory peptide relative to WT” value in experiment [1] is above 1.2 fold.
For MDNGAGEETKSYAETYRLTADDVANINALNESAPAASSAGPSFRA [pro-peptide truncation variant ΔP46], the “Improvement in pH responsiveness of inhibitory peptide relative to WT” value in experiment [1] is above 1.2 fold. In addition, the “Improvement in binding affinity of inhibitory peptide relative to WT” value in experiment [2] was above 1.2 fold.
